This passage reports Km and Vmax results from publication PMC6652007, “Metabolic engineering of Clostridium thermocellum for n-butanol production from cellulose” (Biotechnology for Biofuels, 2019).

Data set [1] deals with CC(O)CC(=O)SCCNC(=O)CCNC(=O)[C@H](O)C(C)(C)COP(=O)(O)OP(=O)(O)OC[C@H]1O[C@@H](n2cnc3c(N)ncnc32)[C@H](O)[C@@H]1OP(=O)(O)O. The data set is described as follows: purified protein. Particulars: 0.3 mM NADH, coupled with Ter, 100 mM MOPS-KOH pH 7.5, 55 °C.
Data set [2] has as its system T1, NC(=O)C1=CN([C@@H]2O[C@H](COP(=O)(O)OP(=O)(O)OC[C@H]3O[C@@H](n4cnc5c(N)ncnc54)[C@H](OP(=O)(O)O)[C@@H]3O)[C@@H](O)[C@H]2O)C=CC1.
T1 construct: His-tagged (vector pD861-CH), codon-optimised, expressed in E. coli BL21(DE3)
The data set is described as follows: NAD(P)H oxidation, A340. It is filed as biochemical, Thermoanaerobacterium thermosaccharolyticum. As to conditions: acetoacetyl-CoA as substrate, 100 mM MOPS-KOH pH 7.5, 55 °C, varied: cofactor. The text has this:
(§1) NAD(P)H oxidation, A340 on Tt_Hbd

Data set [3] relates to T2, NC(=O)C1=CN([C@@H]2O[C@H](COP(=O)(O)OP(=O)(O)OC[C@H]3O[C@@H](n4cnc5c(N)ncnc54)[C@H](O)[C@@H]3O)[C@@H](O)[C@H]2O)C=CC1.
T2 construct: His-tagged (vector pD861-CH), codon-optimised, expressed in E. coli BL21(DE3)
The data set is described as follows: NAD(P)H oxidation, A340. It is filed as biochemical, Thermoanaerobacterium thermosaccharolyticum. As to conditions: acetoacetyl-CoA as substrate, 100 mM MOPS-KOH pH 7.5, 55 °C, varied: cofactor.
Description: as §1

In data set [4] the test system is T3, CC(=O)CC(=O)SCCNC(=O)CCNC(=O)[C@H](O)C(C)(C)COP(=O)(O)OP(=O)(O)OC[C@H]1O[C@@H](n2cnc3c(N)ncnc32)[C@H](O)[C@@H]1OP(=O)(O)O.
T3 construct: His-tagged (vector pD861-CH), codon-optimised, expressed in E. coli BL21(DE3)
The data set is described as follows: NADH oxidation, A340. It is filed as biochemical, Thermoanaerobacterium thermosaccharolyticum. As to conditions: 0.3 mM NADH, 100 mM MOPS-KOH pH 7.5, 55 °C. An excerpt: NADH oxidation, A340 on Tt_Hbd

As a reminder, the Km is the concentration of substrate that gives half-maximal velocity. What is called Vmax is the rate approached at saturating substrate.

Tt_Hbd (Thermoanaerobacterium thermosaccharolyticum DSM 571; D31A), sequence (chain, as listed by the source D31A): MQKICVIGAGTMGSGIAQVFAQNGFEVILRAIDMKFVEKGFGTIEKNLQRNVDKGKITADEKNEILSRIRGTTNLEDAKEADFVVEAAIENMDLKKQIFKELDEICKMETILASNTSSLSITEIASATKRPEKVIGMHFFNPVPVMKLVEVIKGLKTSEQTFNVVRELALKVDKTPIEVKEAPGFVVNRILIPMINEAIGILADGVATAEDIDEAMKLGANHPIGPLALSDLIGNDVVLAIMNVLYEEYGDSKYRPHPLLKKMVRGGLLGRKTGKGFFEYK
Tt_Hbd (Thermoanaerobacterium thermosaccharolyticum DSM 571), sequence (chain, as listed by the source): as the sequence (chain, as listed by the source D31A) above, with A31D counted along it

Regarding “Tt_Crt (Thermoanaerobacterium thermosaccharolyticum DSM 571)”, the Km in data set [1] came to 600 ± 100 µM.
As to “Tt_Hbd (Thermoanaerobacterium thermosaccharolyticum DSM 571)”, the Michaelis constant (Km) in data set [2] turned out to be 1100 ± 200 µM; in data set [3] it was 50 ± 20 µM; in data set [4] it was 30 ± 10 µM. Further, the Vmax in data set [2] came out at 15.2 µmol/min/mg; in data set [3], 61.4 µmol/min/mg.
Regarding “Tt_Hbd (Thermoanaerobacterium thermosaccharolyticum DSM 571; D31A)”, in data set [2], the Km came out at 30 ± 10 µM and the maximal velocity (Vmax) is 485 µmol/min/mg. Besides, in data set [3], the Km was found to be 60 ± 20 µM and the Vmax worked out at 38.5 µmol/min/mg.
